Here are results for eight molecules from patent US20250376539A1 (KIRA PHARMACEUTICALS SUZHOU, published 2025).

Positions count from the first letter of the chain named.

By EC50 is commonly meant the concentration at which the effect is half-maximal. One may read the Kd as the free concentration of one partner at which half of the binding sites on the other are occupied at equilibrium, for simple one-to-one binding. The term koff denotes a measure of how fast the partners let go of each other. The term kon denotes the second-order rate constant of association.

First the molecules themselves.
T1: recombinant human C2a, C-terminal 6His-tag, made in house (CHO cell expression) (human, UniProt P06681 244-752)
T1 sequence: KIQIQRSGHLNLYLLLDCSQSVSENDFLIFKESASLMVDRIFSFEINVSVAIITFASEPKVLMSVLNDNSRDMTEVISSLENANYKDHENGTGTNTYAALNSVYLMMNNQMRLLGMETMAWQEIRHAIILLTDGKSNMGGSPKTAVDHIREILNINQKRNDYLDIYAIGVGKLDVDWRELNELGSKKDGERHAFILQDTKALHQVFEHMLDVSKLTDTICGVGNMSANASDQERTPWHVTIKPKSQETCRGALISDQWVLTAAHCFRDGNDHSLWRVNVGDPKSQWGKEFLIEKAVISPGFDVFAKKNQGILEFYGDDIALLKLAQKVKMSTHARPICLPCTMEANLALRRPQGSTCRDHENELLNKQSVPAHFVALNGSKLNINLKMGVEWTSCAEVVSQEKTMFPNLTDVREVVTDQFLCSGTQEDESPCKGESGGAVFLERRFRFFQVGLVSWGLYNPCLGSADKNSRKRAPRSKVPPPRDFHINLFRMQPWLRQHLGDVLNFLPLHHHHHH

T2: recombinant cyno C2a, C-terminal 6His-tag, made in house (CHO cell expression) (cynomolgus monkey, UniProt P06681 244-752 (human entry))
T2 chain: T1 sequence with C18S, D68V, M73I, N84K, R112Q, E117K, H148Q

T3: recombinant cynomolgus (cyno) complement C2 (XP_005553508.1), C-terminal 6His-tag, made in house (CHO cell … (cynomolgus monkey (Macaca fascicularis), UniProt P06681 21-752 (human entry)))
T3 construct: also called cyno C2; Cyno C2
T3 chain: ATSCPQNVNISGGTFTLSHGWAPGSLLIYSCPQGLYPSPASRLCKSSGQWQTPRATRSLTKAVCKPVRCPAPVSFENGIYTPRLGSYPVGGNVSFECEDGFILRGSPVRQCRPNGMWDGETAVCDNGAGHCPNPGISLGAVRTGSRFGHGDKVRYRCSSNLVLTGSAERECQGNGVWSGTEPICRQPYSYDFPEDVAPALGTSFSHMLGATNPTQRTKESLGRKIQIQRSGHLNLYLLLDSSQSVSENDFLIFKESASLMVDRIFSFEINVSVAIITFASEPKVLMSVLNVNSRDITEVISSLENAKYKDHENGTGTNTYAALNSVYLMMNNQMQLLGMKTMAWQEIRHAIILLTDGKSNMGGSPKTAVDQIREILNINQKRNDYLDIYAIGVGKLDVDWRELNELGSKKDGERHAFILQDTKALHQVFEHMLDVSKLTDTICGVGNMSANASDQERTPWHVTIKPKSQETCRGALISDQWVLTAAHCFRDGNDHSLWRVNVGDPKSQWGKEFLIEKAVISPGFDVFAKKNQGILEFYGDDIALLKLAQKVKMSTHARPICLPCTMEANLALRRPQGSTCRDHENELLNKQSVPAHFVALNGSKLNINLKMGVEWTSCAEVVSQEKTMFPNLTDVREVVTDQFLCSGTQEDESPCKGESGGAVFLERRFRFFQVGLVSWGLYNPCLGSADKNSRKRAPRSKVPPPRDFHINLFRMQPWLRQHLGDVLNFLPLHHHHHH

T4: recombinant human complement C2 (NP_000054.2), C-terminal 6His-tag, made in house (CHO cell expression) (human, UniProt P06681 21-752)
T4 construct: a linker before the tag is not described; also called human C2; Human C2
T4 sequence: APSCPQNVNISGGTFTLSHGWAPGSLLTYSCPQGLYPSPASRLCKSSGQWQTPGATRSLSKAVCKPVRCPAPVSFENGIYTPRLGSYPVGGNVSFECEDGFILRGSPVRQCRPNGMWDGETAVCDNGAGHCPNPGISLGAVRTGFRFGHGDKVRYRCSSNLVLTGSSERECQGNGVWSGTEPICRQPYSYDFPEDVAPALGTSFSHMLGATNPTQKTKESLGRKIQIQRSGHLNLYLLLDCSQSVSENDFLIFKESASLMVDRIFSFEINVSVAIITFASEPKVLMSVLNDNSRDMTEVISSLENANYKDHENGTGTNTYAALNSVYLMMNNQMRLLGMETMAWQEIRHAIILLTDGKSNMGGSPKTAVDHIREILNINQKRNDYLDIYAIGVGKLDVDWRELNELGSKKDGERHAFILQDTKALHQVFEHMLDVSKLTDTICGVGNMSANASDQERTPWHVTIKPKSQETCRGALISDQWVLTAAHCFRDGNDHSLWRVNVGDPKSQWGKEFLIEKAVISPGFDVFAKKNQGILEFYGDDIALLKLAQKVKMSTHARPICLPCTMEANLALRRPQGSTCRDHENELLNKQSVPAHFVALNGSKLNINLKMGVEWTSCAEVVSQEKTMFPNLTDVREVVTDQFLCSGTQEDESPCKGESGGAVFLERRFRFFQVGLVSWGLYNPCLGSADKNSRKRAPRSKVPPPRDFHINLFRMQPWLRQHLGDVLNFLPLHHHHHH

B1: anti-C2 antibody 34.5 (antibody, IgG4, V domains shown)
VH: QVQLQESGPGLVKPSQTLSLTCTVSGGSISRGGHQWTWIRQHPGKGLEWIGYIHHSGSTYYNPSLNDRLTILVDTPKNQFSLKLSSVTAADTAVYYCARWNLGSYGDYWGQGTLVTVSS
VL: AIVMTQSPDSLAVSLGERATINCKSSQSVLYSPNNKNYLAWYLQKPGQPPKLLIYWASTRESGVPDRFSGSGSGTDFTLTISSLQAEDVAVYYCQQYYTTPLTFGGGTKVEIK
notes: Recombinant
B2: anti-C2 antibody 199.1 (antibody, IgG4, V domains shown)
VH: B1 VH with T37S, H42N, G44E, D67N
VL: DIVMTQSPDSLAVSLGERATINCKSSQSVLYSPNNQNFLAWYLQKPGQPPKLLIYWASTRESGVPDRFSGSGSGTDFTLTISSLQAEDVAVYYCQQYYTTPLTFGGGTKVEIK
notes: Recombinant
B3: anti-C2 antibody 48.14 (antibody, IgG4, V domains shown)
VH: EVQLLESGGGLVQPGGSLRLSCAASGFKFSYYAMSWVRQAPGKGLEWVSLISGSGYSTYFADSVKGRFTISRDNSKNTLYLQMNSLRAEDTAVYYCAKDSIAVAGSEYFQHWGQGTLVTVSS
VL: SYVLTQPPSVSVAPGQTARITCGGDNIGGKSVHWYQQKPGQAPVLVVYDDSDRPSGIPERFSGSDSGNTATLTISWVEAGDEADYYCQVWDDSSDHWVFGGGTKLTVL
notes: Recombinant
B4: anti-C2 antibody 39.4 (antibody, IgG4, V domains shown)
VH: B3 VH with R19S, A23T, K28T, Y31H, L50V, Y56A, Y59F, F60Y, K76E
VL: SYVLTQAPSVSVAPGQTARITCGGNNIGGKTVHWYQQKPGQAPMLVVYDDSDRPSGIPERFSGSKSGNMAILTISRVEAGDEADYYCQLYDIYSDHWVFGGGTKLTVL
notes: Recombinant
B5: anti-C2 antibody 83.16 (antibody, IgG4, V domains shown)
VH: QLQLQESGPGLVKSSETLSLTCTVSGGPISSSSYYWGWIRQPPGKGLEWIGTIYYSGRTYYNPSLKSRGTISVGTSKNQFSLKLSSVTAADTAVFYCAGGVGVTWDYWGQGTLVTVSS
VL: SYDLSQPLSVSVALGQTARITCGGNDIESKNVHWYQQRPGQAPVLVIYRNSNRPSGIPERFSGSNSGNTATLTISRGQGGDEADYYCQVWDSSTVIFGGGTKLTVL
notes: Recombinant
B6: anti-C2 antibody 59.45 (antibody, IgG4, V domains shown)
VH: QLQLQESGPGLVKTSETLSLTCTVSGGSITSGVYYWGWIRQPPGKGLEWIGSIYHGGNTYNNPSLKSRVTIFIDTSKNQFSLKLSSVTAADTAVYYCAEGVSSGWSYYFDYWGQGTLVTVSS
VL: SSELTQDPAVSVALGQTVRITCQGDSLRRFYASWYQQKPGQAPVLVGYGKNNRPSGIPDRFSGSTSGNAASLTITGSQAEDEADYYCNSRDSSGDHLIFGGGTKLTVL
notes: Recombinant
B7: anti-C2 antibody 139.14 (antibody, IgG4, V domains shown)
VH: QVQLRESGPGLMKPSETLSLTCTVSGGSVSSGVYYWTWIRQPPGKGLEWIGSMFYSGNADYNPSLKSRVTISVDTSKNQFSLRLNSVSAADMAVYYCARGYASGWSYYFDYWGQATLVTVSS
VL: SSELTQDPTVSVALGQTVRITCQGDSLRTYYASWYQQKPGQAPVLVLYGKNNRPSGIPDRFSGSSSGNTASLTITGAQAEDEADYYCNSRYSSGTHVVFGGGTKLTVL
notes: Recombinant
B8: 3.2pHGL (3.2 pH construct derived from a human germline framework sequence) (antibody, V domains shown)
VH: B3 VH with K28T, S30R, Y31H, Y56A, Y59H, F60Y, I101L
VL: B3 VL with G24H, D25N, N26Y, I27F, D65N, W76R, W90Y, D92T
notes: also called germlined 3.2 pH

The first test concerns the target T1, recombinant human C2a, C-terminal …. Kind of test: ELISA on human C2a, OD450nm against log Ab conc. (nmol/L).
Take B1: the binding result was “no binding (tested: 100 nmol/L)”.
Consider B2, for which the binding result was “no binding (tested: 100 nmol/L)”.
On to B3, for which the binding result is on record as “no binding (tested: 100 nmol/L)”.
Same read-out and setting: under B4 stands “no binding (tested: 100 nmol/L)”.
Still for that read-out and setting: under B5 stands “no binding (tested: 100 nmol/L)”.

A further test deals with T2, recombinant cyno C2a, C-terminal …. The experiment in a line: ELISA on cyno C2a, OD450nm against log Ab conc. (nmol/L).
On to B1, for which the binding result is recorded as “no binding (tested: 100 nmol/L)”.
With B2, the binding result was “no binding (tested: 100 nmol/L)”.
For the molecule B3, the binding result is “no binding (tested: 100 nmol/L)”.
As to B4, the binding result is “no binding (tested: 100 nmol/L)”.
On the same count and under the same terms, under B5 stands “no binding (tested: 100 nmol/L)”.

Another test shares this target. The experiment in a line: ELISA. Background: In an ELISA, binding on a coated surface is turned into a signal by an enzyme label.
As to B6, the EC50 was 0.123 nM.
As for B7, the concentration for a half-maximal effect (EC50) was 0.208 nM.

For another test, the target named is T3, recombinant cynomolgus (cyno) …. Kind of test: ELISA.
Consider B1, for which the EC50 was determined as 0.0521 nM.
As to B2, the EC50 was 0.05 nM.
Regarding B6, the EC50 was 0.263 nM.
Same read-out and setting: under B3 stands 0.0682 nM; under B4, 0.0869 nM; under B7, 0.115 nM.
As for B5, the concentration for a half-maximal effect (EC50) was found to be 0.0397 nM.

The target of the next test is T4, recombinant human complement C2 …. Kind of test: ELISA.
On to B1, for which the EC50 was 0.0512 nM.
Turning to B2, the EC50 was determined as 0.0479 nM.
For B6, the concentration giving a half-maximal response (EC50) is 0.054 nM.
Same read-out and setting: then B3, with 0.0514 nM; and B4, with 0.0576 nM; and B7, with 0.0599 nM.
With B5, the EC50 was 0.0408 nM.

For another test, the target named is T1, recombinant human C2a, C-terminal …. The experiment in a line: ELISA.
Regarding B6, the concentration for a half-maximal effect (EC50) worked out at 0.124 nM.
On the same count and under the same terms, then B7, with 0.131 nM.

In the next test the target is T4, recombinant human complement C2 …. Kind of test: drawn kinetic table; method and antigen not printed on the sheet, legend paragraph 101 says only anti-C2 antibodies; human C2 taken from the context of Examples 5 and 10.
Turning to B8, the dissociation constant Kd was 0.138 nM, the dissociation rate constant (koff) is 4.05e-05 s⁻¹ and the association rate constant (kon) came out at 294000 M⁻¹ s⁻¹.
